Biological target: immune complexes (Dylight 650-labeled BSA + polyclonal rabbit anti-BSA IgG + human serum complement) (bovine) (UniProt P02769)
Test: cell-based or functional assay

UniProt P02769, sequence (P02769 25-607, one chain of several): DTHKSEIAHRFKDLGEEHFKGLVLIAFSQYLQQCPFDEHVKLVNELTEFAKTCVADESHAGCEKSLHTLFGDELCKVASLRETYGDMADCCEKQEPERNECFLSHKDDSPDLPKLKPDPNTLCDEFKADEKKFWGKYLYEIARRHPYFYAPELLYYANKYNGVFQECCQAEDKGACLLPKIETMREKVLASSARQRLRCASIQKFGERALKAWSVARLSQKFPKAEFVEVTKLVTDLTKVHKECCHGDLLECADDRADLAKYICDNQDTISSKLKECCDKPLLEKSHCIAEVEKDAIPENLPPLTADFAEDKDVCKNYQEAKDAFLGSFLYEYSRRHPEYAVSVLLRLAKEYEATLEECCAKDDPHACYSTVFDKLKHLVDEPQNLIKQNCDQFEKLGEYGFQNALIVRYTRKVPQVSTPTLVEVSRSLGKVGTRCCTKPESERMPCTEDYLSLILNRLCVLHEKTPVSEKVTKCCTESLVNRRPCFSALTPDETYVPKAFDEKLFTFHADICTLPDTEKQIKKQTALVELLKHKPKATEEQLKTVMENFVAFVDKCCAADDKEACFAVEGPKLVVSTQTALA

complement receptor 1 (CR1) exogenously over-expressed on the surface of cultured erythroid cells (from UniProt P17927 42-2039)
uptake of fluorescent immune complexes by activated U937 macrophages in co-culture (flow cytometry): 2 fold

From patent US20190376034A1
